The source of these data is US20230341395A1.

For the assay, the target named is Recombinant SARS-CoV-2 Spike protein antigen (Z03501, Genscript) (SARS-CoV-2) (UniProt P0DTC2).

A word on the Kd: it is the equilibrium constant for the complex coming apart. As usually defined, the koff is the rate constant with which the complex falls apart. For orientation: kon means a measure of how fast the partners come together. In the case of “Monoclonal antibody against the SARS-CoV-2 Spike protein (A02038, Genscript)”, the Kd stood at 2.39 nM, the koff worked out at 0.000603 s⁻¹ and the kon came out at 252000 M⁻¹ s⁻¹.
